Assay [1] deals with T1, PRAME peptide on HLA-A*24:02 (human).
T1 peptide: PYLGQMINL
In words: SPR, equilibrium, 25 C; reduced peptide; soluble, with an engineered disulfide between the constant domains. (In general: Surface plasmon resonance follows binding to a sensor surface in real time, without labels.)

Assay [2] concerns the target … (SEQ ID NO: 1) HLA-A*24 complex, reduced form of the peptide (human). As to the kind of experiment: SPR, soluble TCR over immobilised biotinylated pHLA, equilibrium, 25 C.
Assay [3] addresses … (SEQ ID NO: 1) HLA-A*24 complex, oxidised form of the peptide (human). The description is as above.
In assay [4] the target is T2, PRAME peptide on HLA-A*24:02 (human, not fully specified (residue 6)).
T2 peptide: PYLGQMINL
In words: SPR, equilibrium, 25 C; oxidised peptide; soluble, with an engineered disulfide between the constant domains.

The source of these data is US20250026829A1 (published 2025).

Where no end group is shown, it is not given here.

What is called Kd is the free concentration of one partner at which half of the binding sites on the other are occupied at equilibrium, for simple one-to-one binding. Lower therefore signals a tighter complex.

B1: S5 (TCR)
alpha TRAV12-2 CDR3: AVNKGFQKLV
beta TRBV6-1 CDR3: ASSEGWGGQPQH
As for B1, the Kd in assay [1] and in assay [2] was 14.5 µM in each case.

B2: S10 (TCR)
alpha TRAV27 CDR3: GAIWSTLGRLY
beta TRBV5-6 CDR3: SSFKGVNQPQH
As to B2, the Kd in assay [1] came to 53 µM; in assay [2], 53 µM; in assay [3], 193 µM; in assay [4] it was 193 µM.

B3: S6 (TCR)
alpha TRAV21 CDR3: AVPNPSARQLT
beta TRBV7-9 CDR3: ASSLEGQGVEQF
As to B3, the Kd in assay [1] worked out at 126 µM; in assay [2], 126 µM; in assay [3] it was 241 µM; in assay [4], 241 µM.

B4: S1 (TCR)
alpha TRAV24 CDR3: AFISWRSSGDKLT
beta TRBV25 CDR3: ASSSPLSGPLASPLH
In the case of B4, the Kd in assay [1] and in assay [2] was 85 µM in each case.

B5: S4 (TCR)
alpha TRAV12-2 CDR3: AVNGPNNAGNMLT
beta TRBV6-2/3 CDR3: ASSPGGFGQPQH
For the molecule B5, the Kd in assay [1] and in assay [2] was 18.9 µM throughout.
